{"source": "patent US20070003923A1", "about": "(Scripps Research, published 2007)", "binders": {"B1": {"name": "wild type Ad5 fiber protein, on Ad5-pseudotyped particles (Ad5.GFP.ΔF/5F) (other)", "chain": "MKRARPSEDTFNPVYPYDTETGPPTVPFLTPPFVSPNGFQESPPGVLSLRLSEPLVTSNGMLALKMGNGLSLDEAGNLTSQNVTTVSPPLKKTKSNINLEISAPLTVTSEALTVAAAAPLMVAGNTLTMQSQAPLTVHDSKLSIATQGPLTVSEGKLALQTSGPLTTTDSSTLTITASPPLTTATGSLGIDLKEPIYTQNGKLGLKYGAPLHVTDDLNTLTVATGPGVTINNTSLQTKVTGALGFDSQGNMQLNVAGGLRIDSQNRRLILDVSYPFDAQNQLNLRLGQGPLFINSAHNLDINYNKGLYLFTASNNSKKLEVNLSTAKGLMFDATAIAINAGDGLEFGSPNAPNTNPLKTKIGHGLEFDSNKAMVPKLGTGLSFDSTGAITVGNKNNDKLTLWTTPAPSPNCRLNAEKDAKLTLVLTKCGSQILATVSVLAVKGSLAPISGTVQSAHLIIRFDENGVLLNNSFLDPEYWNFRNGDLTEGTAYTNAVGFMPNLSAYPKSHGKTAKSNIVSQVYLNGDKTKPVTLTITLNGTQETGDTTPSAYSMSFSWDWSGHNYINEIFATSSYTFSYIAQE"}, "B2": {"name": "Coxsackie-Adenovirus Receptor (CAR) on A549 lung carcinoma cells (receptor)", "chain": "LSITTPEEMIEKAKGETAYLPCKFTLSPEDQGPLDIEWLISPADNQKVDQVIILYSGDKIYDDYYPDLKGRVHFTSNDLKSGDASINVTNLQLSDIGTYQCKVKKAPGVANKKIHLVVLVKPSGARCYVDGSEEIGSDFKIKCEPKEGSLPLQYEWQKLSDSQKMPTSWLAEMTSSVISVKNASSEYSGTYSCTVRNRVGSDQCLLRLNVVPPSNKAGLIAGAIIGTLLALALIGLIIFCCRKKRREEKYEKEVHHDIREDVPPPKSRTSTARSYIGSNHSSLGSMSPSNMEGYSKTQYNQVPSEDFERTPQSPTLPPAKVAAPNLSRMGAIPVMIPAQSKDGSIV", "notes": "whole, on cells; The assays were run on A549 cells, which were not transfected with CAR"}, "B3": {"name": "Ad37s/Ad5k chimeric fiber (Ad37 shaft fused to the Ad5 knob), on pseudotyped Ad5 particles (other)", "chain": "MKRARPSEDDFNPVYPYGYARNQNIPFLTPPFVSSDGFKNFPPGVLSLKLADPITITNGDVSLKVGGGLTLQDGSLTVNPKAPLQVNTDKKLELAYDNPFESSANKLSLKVGHGLKVLDEKSAAGLKDLIGKLVVLTGKGIGTENLENTDGSSRGIGINVRAREGLTFDNDGYLVAWNPKYDTRTLWTTPAPSPNCRLNAEKDAKLTLVLTKCGSQILATVSVLAVKGSLAPISGTVQSAHLIIRFDENGVLLNNSFLDPEYWNFRNGDLTEGTAYTNAVGFMPNLSAYPKSHGKTAKSNIVSQVYLNGDKTKPVTLTITLNGTQETGDTTPSAYSMSFSWDWSGHNYINEIFATSSYTFSYIAQE", "notes": "Built from Ad37 1-184, with the first seven residues changed to those of Ad5, and Ad5 400-581; also called pLP13"}, "B4": {"name": "Ad5s/Ad37s chimeric fiber (Ad5 fiber with the 3rd and 21st repeats replaced with the corresponding repeats of Ad37), on pseudotyped Ad5 particles (other)", "chain": "MKRARPSEDTFNPVYPYDTETGPPTVPFLTPPFVSPNGFQESPPGVLSLRLSEPLVTSNGMLALKMGNGLSLDEAGSLTVNPKAPLQVNTDSNINLEISAPLTVTSEALTVAAAAPLMVAGNTLTMQSQAPLTVHDSKLSIATQGPLTVSEGKLALQTSGPLTTTDSSTLTITASPPLTTATGSLGIDLKEPIYTQNGKLGLKYGAPLHVTDDLNTLTVATGPGVTINNTSLQTKVTGALGFDSQGNMQLNVAGGLRIDSQNRRLILDVSYPFDAQNQLNLRLGQGPLFINSAHNLDINYNKGLYLFTASNNSKKLEVNLSTAKGLMFDATAIAINAGDGLEFGSPNAPNTNPLKTKIGHGLEFDSNIGINVRAREGLTFDNDGAITVGNKNNDKLTLWTTPAPSPNCRLNAEKDAKLTLVLTKCGSQILATVSVLAVKGSLAPISGTVQSAHLIIRFDENGVLLNNSFLDPEYWNFRNGDLTEGTAYTNAVGFMPNLSAYPKSHGKTAKSNIVSQVYLNGDKTKPVTLTITLNGTQETGDTTPSAYSMSFSWDWSGHNYINEIFATSSYTFSYIAQE", "notes": "also called 'straightened' Ad5 fiber shaft; pLP43"}}, "key": {"[1]": {"target": "B2", "assay": "cell-based or functional assay"}, "[2]": {"target": "B1", "assay": "virus attachment to A549 cells at 4 C, bound genomes by TaqMan PCR; non-specific binding set by excess Ad5 knob"}, "[3]": {"target": "T1, Ad5Δs truncated Ad5 fiber (deletion of the 14 central shaft repeats), on pseudotyped Ad5 particles (adenovirus serotype 5 (Ad5), UniProt P11818 1-581)", "T1 construct": "also called Ad5As; pLP32", "T1 sequence": "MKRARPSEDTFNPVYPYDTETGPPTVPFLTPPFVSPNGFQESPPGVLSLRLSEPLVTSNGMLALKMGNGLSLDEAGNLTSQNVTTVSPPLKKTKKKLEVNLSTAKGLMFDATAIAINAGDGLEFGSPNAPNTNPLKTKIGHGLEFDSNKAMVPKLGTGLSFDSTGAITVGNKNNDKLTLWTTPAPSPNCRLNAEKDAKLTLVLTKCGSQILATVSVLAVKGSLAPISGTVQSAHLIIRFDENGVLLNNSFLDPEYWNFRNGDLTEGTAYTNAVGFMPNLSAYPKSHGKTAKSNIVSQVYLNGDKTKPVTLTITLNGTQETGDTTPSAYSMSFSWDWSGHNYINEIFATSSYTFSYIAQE", "assay": "virus attachment to A549 cells at 4 C, bound genomes by TaqMan PCR; non-specific binding set by excess Ad5 knob"}, "[4]": {"target": "B2", "assay": "virus attachment to A549 cells at 4 C, bound genomes by TaqMan PCR; non-specific binding set by excess Ad5 knob"}}, "data": [{"binder": "B1", "values": [{"measurement": "infection of A549 cells by GFP vector particles (FACS)", "setting": "[1]", "result": "~8", "unit": "fold"}]}, {"binder": "B2", "values": [{"measurement": "binding result", "setting": "[2]", "result": "binds"}, {"measurement": "binding result", "setting": "[3]", "result": "binds"}]}, {"binder": "B3", "values": [{"measurement": "binding result", "setting": "[4]", "result": "binds"}]}, {"binder": "B4", "values": [{"measurement": "binding result", "setting": "[4]", "result": "binds"}]}]}
